In article PMC3372094:

Molecular target: calmodulin-binding domain of the original SK2 channel, SK2-a (UniProt P70604)
Test: ITC

Sequence of UniProt P70604 (P70604 396-487): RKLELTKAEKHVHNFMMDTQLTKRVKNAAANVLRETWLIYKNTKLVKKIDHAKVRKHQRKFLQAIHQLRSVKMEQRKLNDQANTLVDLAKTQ

- dH of the first site (rising phase, two-site fit): -34.7 kcal/mol
Substance: calmodulin (rat) (from UniProt P0DP29 1-149) (natural protein; other documents disagree on this pair)
